In patent publication US20200002421A1 (AbbVie / Abbott, published 2020):

Target: T1, Human full length B7-H3 (human, UniProt Q5ZPR3 29-534)
T1 sequence: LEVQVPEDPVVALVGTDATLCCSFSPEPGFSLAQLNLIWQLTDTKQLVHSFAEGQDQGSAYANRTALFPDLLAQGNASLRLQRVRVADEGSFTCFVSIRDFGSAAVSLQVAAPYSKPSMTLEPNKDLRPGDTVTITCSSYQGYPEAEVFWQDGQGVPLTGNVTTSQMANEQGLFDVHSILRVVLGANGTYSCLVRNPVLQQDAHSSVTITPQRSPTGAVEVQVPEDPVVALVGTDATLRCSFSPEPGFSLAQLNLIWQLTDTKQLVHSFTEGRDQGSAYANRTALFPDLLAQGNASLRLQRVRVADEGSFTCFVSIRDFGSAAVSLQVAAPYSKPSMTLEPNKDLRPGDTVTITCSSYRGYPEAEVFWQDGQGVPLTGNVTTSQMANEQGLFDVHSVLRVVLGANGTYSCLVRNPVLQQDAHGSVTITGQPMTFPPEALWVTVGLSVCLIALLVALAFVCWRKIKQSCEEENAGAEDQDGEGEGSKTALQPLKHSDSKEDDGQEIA
Assay: cell-based or functional assay

B1: huAb13v1-AAA (antibody, human IgG1, kappa, L234A L235A, V domains shown)
VH: EVQLQESGPGLVKPSETLSLTCAVTGYSITSGYSWHWIRQFPGNGLEWMGYIHSSGSTNYNPSLKSRISISRDTSKNQFFLKLSSVTAADTAVYYCAGYDDYFEYWGQGTTVTVSS
VL: DIQMTQSPSSLSASVGDRVTITCKASQNVGFNVAWYQQKPGKSPKALIYSASYRYSGVPSRFSGSGSGTDFTLTISSLQPEDFAEYFCQQYNWYPFTFGQGTKLEIKR
modifications: synthon AAA on interchain Cys
For B1, the “EC50 nM H1650 (in vitro tumor cell cytotoxicity)” value (“EC50 nM H1650” for short) was 0.37 nM.

B2: huAb13v1-AAD (antibody, human IgG1, kappa, L234A L235A, V domains shown)
VH: EVQLQESGPGLVKPSETLSLTCAVTGYSITSGYSWHWIRQFPGNGLEWMGYIHSSGSTNYNPSLKSRISISRDTSKNQFFLKLSSVTAADTAVYYCAGYDDYFEYWGQGTTVTVSS
VL: DIQMTQSPSSLSASVGDRVTITCKASQNVGFNVAWYQQKPGKSPKALIYSASYRYSGVPSRFSGSGSGTDFTLTISSLQPEDFAEYFCQQYNWYPFTFGQGTKLEIKR
modifications: synthon AAD on interchain Cys
For B2, the “EC50 nM H1650” value was 0.21 nM.

B3: huAb13v1-ZZ (antibody, human IgG1, kappa, L234A L235A, V domains shown)
VH: EVQLQESGPGLVKPSETLSLTCAVTGYSITSGYSWHWIRQFPGNGLEWMGYIHSSGSTNYNPSLKSRISISRDTSKNQFFLKLSSVTAADTAVYYCAGYDDYFEYWGQGTTVTVSS
VL: DIQMTQSPSSLSASVGDRVTITCKASQNVGFNVAWYQQKPGKSPKALIYSASYRYSGVPSRFSGSGSGTDFTLTISSLQPEDFAEYFCQQYNWYPFTFGQGTKLEIKR
modifications: synthon ZZ on interchain Cys
B3 was tested, and the “EC50 nM H1650” value was 0.42 nM.

B4: huAb13v1-WD (antibody, human IgG1, kappa, L234A L235A, V domains shown)
VH: EVQLQESGPGLVKPSETLSLTCAVTGYSITSGYSWHWIRQFPGNGLEWMGYIHSSGSTNYNPSLKSRISISRDTSKNQFFLKLSSVTAADTAVYYCAGYDDYFEYWGQGTTVTVSS
VL: DIQMTQSPSSLSASVGDRVTITCKASQNVGFNVAWYQQKPGKSPKALIYSASYRYSGVPSRFSGSGSGTDFTLTISSLQPEDFAEYFCQQYNWYPFTFGQGTKLEIKR
modifications: synthon WD on interchain Cys
B4 was tested, and the “EC50 nM H1650” value was 0.45 nM.

B5: huAb13v1-ZT (antibody, human IgG1, kappa, L234A L235A, V domains shown)
VH: EVQLQESGPGLVKPSETLSLTCAVTGYSITSGYSWHWIRQFPGNGLEWMGYIHSSGSTNYNPSLKSRISISRDTSKNQFFLKLSSVTAADTAVYYCAGYDDYFEYWGQGTTVTVSS
VL: DIQMTQSPSSLSASVGDRVTITCKASQNVGFNVAWYQQKPGKSPKALIYSASYRYSGVPSRFSGSGSGTDFTLTISSLQPEDFAEYFCQQYNWYPFTFGQGTKLEIKR
modifications: synthon ZT on interchain Cys
In the case of B5, the “EC50 nM H1650” value is reported as 0.3 nM.

B6: huAb13v1-LB (antibody, human IgG1, kappa, L234A L235A, V domains shown)
VH: EVQLQESGPGLVKPSETLSLTCAVTGYSITSGYSWHWIRQFPGNGLEWMGYIHSSGSTNYNPSLKSRISISRDTSKNQFFLKLSSVTAADTAVYYCAGYDDYFEYWGQGTTVTVSS
VL: DIQMTQSPSSLSASVGDRVTITCKASQNVGFNVAWYQQKPGKSPKALIYSASYRYSGVPSRFSGSGSGTDFTLTISSLQPEDFAEYFCQQYNWYPFTFGQGTKLEIKR
modifications: synthon LB on interchain Cys
For B6, the “EC50 nM H1650” value was greater than 133 nM.

B7: huAb3v2.6-LB (antibody, human IgG1, kappa, L234A L235A, V domains shown)
VH: EVQLVQSGAEVKKPGSSVKVSCKASGYTFSSYWMHWVRQAPGQGLEWIGLIHPESGSTNYNEMFKNRATLTVDRSTSTAYMELSSLRSEDTAVYYCAGGGRLYFDYWGQGTTVTVSS
VL: DIVMTQSPLSLPVTPGEPASISCRSSQSLVHSNQDTYLRWYLQKPGQSPQLLIYKVSNRFSGVPDRFSGSGSGTDFTLKISRVEAEDVGVYYCSQSTHVPYTFGGGTKVEIKR
modifications: synthon LB on interchain Cys
B7 was tested, and the “EC50 nM H1650” value was 2.07 nM.

B8: huAb3v2.6-YG (antibody, human IgG1, kappa, L234A L235A, V domains shown)
VH: EVQLVQSGAEVKKPGSSVKVSCKASGYTFSSYWMHWVRQAPGQGLEWIGLIHPESGSTNYNEMFKNRATLTVDRSTSTAYMELSSLRSEDTAVYYCAGGGRLYFDYWGQGTTVTVSS
VL: DIVMTQSPLSLPVTPGEPASISCRSSQSLVHSNQDTYLRWYLQKPGQSPQLLIYKVSNRFSGVPDRFSGSGSGTDFTLKISRVEAEDVGVYYCSQSTHVPYTFGGGTKVEIKR
modifications: synthon YG on interchain Cys
B8 was tested, and the “EC50 nM H1650” value was 0.68 nM.

B9: huAb3v2.6-SR (antibody, human IgG1, kappa, L234A L235A, V domains shown)
VH: EVQLVQSGAEVKKPGSSVKVSCKASGYTFSSYWMHWVRQAPGQGLEWIGLIHPESGSTNYNEMFKNRATLTVDRSTSTAYMELSSLRSEDTAVYYCAGGGRLYFDYWGQGTTVTVSS
VL: DIVMTQSPLSLPVTPGEPASISCRSSQSLVHSNQDTYLRWYLQKPGQSPQLLIYKVSNRFSGVPDRFSGSGSGTDFTLKISRVEAEDVGVYYCSQSTHVPYTFGGGTKVEIKR
modifications: synthon SR on interchain Cys
For B9, the “EC50 nM H1650” value was 0.71 nM.

B10: huAb3v2.6-ZT (antibody, human IgG1, kappa, L234A L235A, V domains shown)
VH: EVQLVQSGAEVKKPGSSVKVSCKASGYTFSSYWMHWVRQAPGQGLEWIGLIHPESGSTNYNEMFKNRATLTVDRSTSTAYMELSSLRSEDTAVYYCAGGGRLYFDYWGQGTTVTVSS
VL: DIVMTQSPLSLPVTPGEPASISCRSSQSLVHSNQDTYLRWYLQKPGQSPQLLIYKVSNRFSGVPDRFSGSGSGTDFTLKISRVEAEDVGVYYCSQSTHVPYTFGGGTKVEIKR
modifications: synthon ZT on interchain Cys
With B10 the “EC50 nM H1650” value was 1.11 nM.

B11: huAb3v2.6-SE (antibody, human IgG1, kappa, L234A L235A, V domains shown)
VH: EVQLVQSGAEVKKPGSSVKVSCKASGYTFSSYWMHWVRQAPGQGLEWIGLIHPESGSTNYNEMFKNRATLTVDRSTSTAYMELSSLRSEDTAVYYCAGGGRLYFDYWGQGTTVTVSS
VL: DIVMTQSPLSLPVTPGEPASISCRSSQSLVHSNQDTYLRWYLQKPGQSPQLLIYKVSNRFSGVPDRFSGSGSGTDFTLKISRVEAEDVGVYYCSQSTHVPYTFGGGTKVEIKR
modifications: synthon SE on interchain Cys
With B11 the “EC50 nM H1650” value was 1.01 nM.

B12: huAb3v2.6-KZ (antibody, human IgG1, kappa, L234A L235A, V domains shown)
VH: EVQLVQSGAEVKKPGSSVKVSCKASGYTFSSYWMHWVRQAPGQGLEWIGLIHPESGSTNYNEMFKNRATLTVDRSTSTAYMELSSLRSEDTAVYYCAGGGRLYFDYWGQGTTVTVSS
VL: DIVMTQSPLSLPVTPGEPASISCRSSQSLVHSNQDTYLRWYLQKPGQSPQLLIYKVSNRFSGVPDRFSGSGSGTDFTLKISRVEAEDVGVYYCSQSTHVPYTFGGGTKVEIKR
modifications: synthon KZ on interchain Cys
B12 was tested, and the “EC50 nM H1650” value was 5.52 nM.

B13: huAb3v2.6-XW (antibody, human IgG1, kappa, L234A L235A, V domains shown)
VH: EVQLVQSGAEVKKPGSSVKVSCKASGYTFSSYWMHWVRQAPGQGLEWIGLIHPESGSTNYNEMFKNRATLTVDRSTSTAYMELSSLRSEDTAVYYCAGGGRLYFDYWGQGTTVTVSS
VL: DIVMTQSPLSLPVTPGEPASISCRSSQSLVHSNQDTYLRWYLQKPGQSPQLLIYKVSNRFSGVPDRFSGSGSGTDFTLKISRVEAEDVGVYYCSQSTHVPYTFGGGTKVEIKR
modifications: synthon XW on interchain Cys
For B13, the “EC50 nM H1650” value was 2.4 nM.

B14: huAb3v2.6-ZZ (antibody, human IgG1, kappa, L234A L235A, V domains shown)
VH: EVQLVQSGAEVKKPGSSVKVSCKASGYTFSSYWMHWVRQAPGQGLEWIGLIHPESGSTNYNEMFKNRATLTVDRSTSTAYMELSSLRSEDTAVYYCAGGGRLYFDYWGQGTTVTVSS
VL: DIVMTQSPLSLPVTPGEPASISCRSSQSLVHSNQDTYLRWYLQKPGQSPQLLIYKVSNRFSGVPDRFSGSGSGTDFTLKISRVEAEDVGVYYCSQSTHVPYTFGGGTKVEIKR
modifications: synthon ZZ on interchain Cys
B14 was tested, and the “EC50 nM H1650” value was 1.35 nM.
